Experimental data as given in US20140161803A1 (IFOM FONDAZIONE ISTITUO FIRC DI ONCOLOGIA MOLECOLARE, published 2014).
Substitutions are numbered along the chain they refer to. Where two headings read alike, the source gives them in different places. Each block holds one binder with its values, some of them ahead of it.

Assays:
[1] = target: T1, pro-uPA (UniProt P00749 21-431, limits assumed, Eu3+-label in the cell binding competition assay); assay: soluble receptor titrated on immobilized pro-uPA; detection 13F6 + Eu3+ anti-mouse, time-resolved fluorescence
T1 construct: also called immobilized uPA
Method: The bound material was detected by measuring time-resolved fluorescence intensity. Specific binding was calculated by subtracting the non-specific binding measured in uncoated wells incubated with identical samples. The data shown are means±SD from a representative experiment. The binding curve, equilibrium dissociation constant (Kd, in nanomolar units) and maximum binding capacity (Bmax, in CPS units (counts per second)) were calculated by non-linear regression (four-parameter fit) using the Prism 5.0 software suite.

[2] = target: T1, pro-uPA; assay: as above; remark: listed apart in the source
Method: The bound material was detected by measuring time-resolved fluorescence intensity. Specific binding was calculated by subtracting the non-specific binding measured in uncoated wells incubated with identical samples. […] The binding curve and dissociation constant (Kd) were calculated by non-linear regression (four-parameter fit) using the Prism 5.0 software suite.
ON. […] The Eu³⁺-label was detected by measuring time-resolved fluorescence intensity using an Envision Xcite plate reader (Perkin Elmer Corp.) employing the DELFIA label protocol. To calculate the specific binding, non-specific binding measured in uncoated wells, incubated with identical samples, was subtracted from the total binding measured in coated wells.

[3] = target: T2, vitronectin (UniProt P04004 20-478, limits assumed); assay: soluble receptor titrated on immobilized VN without pro-uPA; detection 13F6 + Eu3+ anti-mouse, time-resolved fluorescence
T2 construct: also called VN; immobilized VN
T2 sequence (P04004 20-478 limits assumed): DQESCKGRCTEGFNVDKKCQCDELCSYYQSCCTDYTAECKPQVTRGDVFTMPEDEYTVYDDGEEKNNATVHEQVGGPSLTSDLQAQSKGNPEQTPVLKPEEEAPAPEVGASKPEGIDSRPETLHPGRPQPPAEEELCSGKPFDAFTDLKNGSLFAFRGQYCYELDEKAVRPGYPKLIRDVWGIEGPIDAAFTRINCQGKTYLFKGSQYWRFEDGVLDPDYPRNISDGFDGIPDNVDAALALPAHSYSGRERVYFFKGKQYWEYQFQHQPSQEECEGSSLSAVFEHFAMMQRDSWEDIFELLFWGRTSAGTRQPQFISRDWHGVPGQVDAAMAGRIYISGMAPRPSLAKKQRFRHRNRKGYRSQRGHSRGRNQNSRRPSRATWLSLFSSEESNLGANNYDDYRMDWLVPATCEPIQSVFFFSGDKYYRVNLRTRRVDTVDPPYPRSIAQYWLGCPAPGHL
Method: The data are from a single experiment and presented as means±SD. The binding curve and Kd were calculated by non-linear regression. […] The data are from a single experiment and are represented as means±SD. The binding curve and Kd were calculated by non-linear regression.

[4] = target: wild-type human uPAR (human, UniProt Q03405 23-305, GPI-anchor on Gly283); assay: cell-based or functional assay

Kd [1]: 11 nM
Kd [2]: 1.1 nM
B1: uPARmyc (receptor)
chain: LRCMQCKTNGDCRVEECALGQDLCRTTIVRLWEEGEELELVEKSCTHSEKTNRTLSYRTGLKITSLTEVVCGLDLCNQGNSGRAVTYSRSRYLECISCGSSDMSCERGRHQSLQCRSPEEQCLDVVTHWIQEGEEGRPKDDRHLRGCGYLPGCPGSNGFHNNDTFHFLKCCNTTKCNEGPILELENLPQNGRQCYSCKGNSTHGCSSEETFLIDCRGPMNQCLVATGTHEPKNQSYMVRGCATASMCQHAHLGDAFSMNHIDVSCCTKSGCNHPGGEQKLISEEDL
notes: monomeric control receptor; used as concentrated CHO conditioned medium without purification; also called soluble monomeric form of uPAR with a C-terminal myc-tag

Kd [3]: 0.62 nM
Kd [2]: 28 nM
B2: ^GFDuPARmyc (receptor)
chain: SNELHQVPSNCDCLNGGTCVSNKYFSNIHWCNCPKKFGGQHCEIDKSKGGAGAAGGLRCMQCKTNGDCRVEECALGQDLCRTTIVRLWEEGEELELVEKSCTHSEKTNRTLSYRTGLKITSLTEVVCGLDLCNQGNSGRAVTYSRSRYLECISCGSSDMSCERGRHQSLQCRSPEEQCLDVVTHWIQEGEEGRPKDDRHLRGCGYLPGCPGSNGFHNNDTFHFLKCCNTTKCNEGPILELENLPQNGRQCYSCKGNSTHGCSSEETFLIDCRGPMNQCLVATGTHEPKNQSYMVRGCATASMCQHAHLGDAFSMNHIDVSCCTKSGCNHPGGEQKLISEEDL
notes: used as concentrated CHO conditioned medium; also called soluble GFDuPAR

% max inhibition (pro-uPA pre-treat.) [4]: < 20%
% max inhibition (veh. pre-treat.) [4]: 37%
B3: BE18 (antibody, mouse IgG1, V domains shown)
VH: ELVKPGASVKIICKASGYIFTDYNMDWVKQSHGKSLEWIGEINPNNGDTIYNQNFKGKATLTVDKSSSTAHMALRSLTSEDTAVYYCTRKGGLRAWFVYWGQGTLVTVS
VL: MSASPGEKVTMTCRASSSVSSSYLHWYQQKSGASPKVWIYSTSNLASGVPARFSGSGSGTSYSLTISSVEAEDAATYYCQQYSGYPLTFGSGTKLEIQ

% max inhibition (pro-uPA pre-treat.) [4]: 82%
% max inhibition (veh. pre-treat.) [4]: 38%
B4: 13D11 (antibody, V domains shown)
VH: ELMKPGASVKLSCKATGYTFTDYWIEWVKQRPGHGLEWIGEILPGRDSTDYNENFKGKATFTADTSSNTAYMQLSSLTTEDSAIYYCARDYYGHISNWYFDVWGTGTTVTVS
VL: SLSASLGERVSLTCRASQDIGSSLNWLQQEPDGTIKRLIYATSSLDSGVPKRFSGSRSGSDYSLTISSLESVDFVVYYCLQYATSPYTFGGGTKLEIKR

% max inhibition (pro-uPA pre-treat.) [4]: 79%
% max inhibition (veh. pre-treat.) [4]: 67%
B5: 19.10 (antibody, V domains shown)
VH: ELVKPGASVKLSCKATGYTFTVYWMEWVRQRPGHGLEWIGEILPGSGRTNYNERFKGKATFTADTSSNTAYMQLSSLTTEDSAIYYCARDYSGDTSTGYFDVWGTGTTVTVS
VL: B4 VL with S23G, N25S, V72E, V76D

% max inhibition (pro-uPA pre-treat.) [4]: < 20%
% max inhibition (veh. pre-treat.) [4]: < 20%
B6: AL6 (antibody, V domains shown)
VH: ELMKPGASVKLSCKATGYSFTGYWIEWVKQRPGHGLEWIGEILPGSDRTNYNEKFKGKATFTADTSSNTAYMQLSSLTTEDSAIYYCARDDYDRGLYIMDYWGQGTSVTVS
VL: B4 VL with S22T, K36R, D46P, S47P, V72E, V76N

% max inhibition (pro-uPA pre-treat.) [4]: < 20%
% max inhibition (veh. pre-treat.) [4]: < 20%
B7: 13F6 (antibody, mouse IgG1, V domains shown)
VH: ELVKPGASVELSCKASGYTFTSYWMNWVKQRPGRGLEWIGRIAPNSGGTQYSGKFKTKATLTVDKSSSTAYMQLSSLTSEDSAVYYCARGDYFGHFDYWGQGTTLTVS
VL: SLSASLGGKVTITCKASQDINNYIAWYQHKPGKGPRLLIHYTSILQPGIPSRFSGSGSGRDYSFSISNLEPEDIATYYCLQCDNLLTFGAGTKLELK
